Publication PMC10567702, “A concerted ATPase cycle of the protein transporter AAA-ATPase Bcs1” (Nature Communications, 2023)

Substrate: Nc1ncnc2c1ncn2[C@@H]1O[C@H](COP(=O)(O)OP(=O)(O)OP(=O)(O)O)[C@@H](O)[C@H]1O
Test: purified protein
Details: conformational turnover per ring (printed as Vmax, maximum turnover rate), reconstituted membranes, 10 mM HEPES pH 7.5, 200 mM NaCl, 2 mM MgCl2, ambient temperature

B1: Bcs1 (mBcs1) (Mus musculus) (protein)
chain: MPFSDFVLALKDNPYFGAGFGLVGVGTALAMARKGAQLGLVAFRRHYMITLEVPARDRSYAWLLSWLTRHSTRTQHLSVETSYLQHESGRISTKFEFIPSPGNHFIWYQGKWIRVERNRDMQMVDLQTGTPWESVTFTALGTDRKVFFNILEEARALALQQEEGKTVMYTAVGSEWRTFGYPRRRRPLDSVVLQQGLADRIVKDIREFIDNPKWYIDRGIPYRRGYLLYGPPGCGKSSFITALAGELEHSICLLSLTDSSLSDDRLNHLLSVAPQQSLVLLEDVDAAFLSRDLAVENPIKYQGLGRLTFSGLLNALDGVASTEARIVFMTTNYIDRLDPALIRPGRVDLKEYVGYCSHWQLTQMFQRFYPGQAPSLAENFAEHVLKATSEISPAQVQGYFMLYKNDPMGAVHNIESLR
**Q.** B1 was tested. Which Km did it give?
**A.** 0.2 µM

**Q.** What about the kcat of the same protein?
**A.** ~0.17 s⁻¹
